In patent US20180105584A1 (published 2018):

Molecular target: SpA on the surface of live S. aureus TCH1516 (USA300 MRSA strain) (Staphylococcus aureus strain USA300 …, UniProt A0A0H3K686 37-508)
Assay: cell-based or functional assay

B1: 10901_QRF (Lys274Gln, His435Arg, Tyr436Phe Fc mutant), CHO expressed IgG1 (antibody)
heavy: EVQLVQSGAEVKKPGASVKVSCKASGYTFSHYYMHWVRQAPGQGLEWMGIINPRYGSTSYAQKFQGRVTMTRDTSTSTVYMELSSLRSEDTAVYYCARDGEVGARDLGWFDPWGQGTLVTVSSASTKGPSVFPLAPSSKSTSGGTAALGCLVKDYFPEPVTVSWNSGALTSGVHTFPAVLQSSGLYSLSSVVTVPSSSLGTQTYICNVNHKPSNTKVDKKVEPKSCDKTHTCPPCPAPELLGGPSVFLFPPKPKDTLMISRTPEVTCVVVDVSHEDPEVQFNWYVDGVEVHNAKTKPREEQYNSTYRVVSVLTVLHQDWLNGKEYKCKVSNKALPAPIEKTISKAKGQPREPQVYTLPPSRDELTKNQVSLTCLVKGFYPSDIAVEWESNGQPENNYKTTPPVLDSDGSFFLYSKLTVDKSRWQQGNVFSCSVMHEALHNRFTQKSLSLSPG
light: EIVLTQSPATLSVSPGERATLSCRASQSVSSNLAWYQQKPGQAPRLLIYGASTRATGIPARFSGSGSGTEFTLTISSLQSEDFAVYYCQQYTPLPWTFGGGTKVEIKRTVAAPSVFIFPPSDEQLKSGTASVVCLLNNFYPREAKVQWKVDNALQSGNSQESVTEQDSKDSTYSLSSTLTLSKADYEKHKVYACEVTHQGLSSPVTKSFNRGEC
killing of S. aureus in opsonophagocytic killing (OPK) assay with human PMNs: ~80%
